These results are taken from US7045617 (MOUNT SINAI SCHOOL OF MEDICINE, dated 2006).

For orientation: Ki means a dissociation constant, usually derived from enzyme kinetics or from competition with a known ligand.

Side-chain parts run from the residue outwards. [ ]: non-standard residue; d: D form. Phe(4-NH2) = Nc1ccc(C[C@H](N)C(=O)O)cc1; Dap = NC[C@H](N)C(=O)O

The target of assay [1] is protein tyrosine kinase Csk (UniProt P41240 1-450, limits assumed). As to the kind of experiment: Csk kinase inhibition assay.
Assay [2] deals with T1, recombinant mouse protein kinase A (catalytic subunit) (mouse, UniProt P05132 2-351). Description: PKA radiometric kinase assay, Dixon plot, adjusted to zero substrate. On the procedure: (§1) Reagents from Calbiochem's Protein Kinase A kit were used to perform the inhibition assays and recombinant mouse PKA (catalytic subunit) was also purchased from Calbiochem (enzyme concentration was established by Bradford analysis). […] These were further diluted into water to produce a range of inhibitor solutions between 51 μM and 507 nM. An 11.25 μL aliquot from each of these solutions was pre-incubated with 7.5 μL of a 1.75 nM PKA enzyme solution (750 ug/uL bovine serum albumin) for 10 minutes at 30° C. after which 12.5 μL of pre-incubation mix was added to 12.5 μL of reaction mix (30 μM cold ATP, 50 μM biotinylated kemptide substrate, 0.04 uCi/μL γP-32 ATP, 80 mM Tris-HCl, 10 mM MgCl_2, pH 7.5) to initiate the enzymatic reaction. […] The columns were placed in scintillation vials and radioactivity was measured using a scintillation counter.

Assay [3] concerns the target T1, recombinant mouse protein kinase A …. As to the kind of experiment: PKA radiometric kinase assay with biotinylated kemptide, Dixon plot, versus ATP. On the procedure:
as §1

Chain of protein tyrosine kinase Csk (P41240 whole entry): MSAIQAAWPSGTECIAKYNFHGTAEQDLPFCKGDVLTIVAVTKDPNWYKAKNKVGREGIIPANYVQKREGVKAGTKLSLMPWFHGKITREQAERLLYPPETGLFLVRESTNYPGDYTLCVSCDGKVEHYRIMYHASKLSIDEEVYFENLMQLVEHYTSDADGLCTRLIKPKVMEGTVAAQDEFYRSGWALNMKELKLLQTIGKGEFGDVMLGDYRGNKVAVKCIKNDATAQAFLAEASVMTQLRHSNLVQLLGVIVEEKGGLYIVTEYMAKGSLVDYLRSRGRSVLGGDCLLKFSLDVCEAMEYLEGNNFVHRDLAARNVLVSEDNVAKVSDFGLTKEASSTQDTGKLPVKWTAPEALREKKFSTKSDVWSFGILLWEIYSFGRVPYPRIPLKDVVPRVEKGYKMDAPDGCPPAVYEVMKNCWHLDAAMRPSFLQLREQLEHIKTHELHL

Molecule Ac-KKKLPATGD[Phe(4-NH2)]([Ac-ATPγS])MNMSPVGD-OH (also called bisubstrate analog 2) [Compound 2 (peptide-ATP bisubstrate analog; IRS727 peptide linked to ATPγS through an acetyl linker)] displayed an inhibition constant Ki in assay [1] of roughly 40 µM.
As for Ac-LRRA[Dap]([Ac-ATPγS])LG-OH [kemptide-ATPγS conjugate], the Ki in assay [2] came out at 4.6 µM; in assay [3], 9.56 µM.
